Tests used:
[1] = molecular target: Glutathione-S-transferase modified with the HA epitope (GST-HA) (human influenza virus); assay: Western blot, 4 ng GST-HA per lane, primary antibody titrated; chemiluminescence
[2] = molecular target: epitope … (98-106) of the haemagglutinin of the human influenza virus (human influenza virus); assay: rounded affinity in the description; antigen not given
[3] = molecular target: Green-fluorescent protein modified with the HA epitope (GFP-HA) (human influenza virus) [GFP: P42212]; assay: immunoprecipitation of 50 ng GFP-HA with protein G, then Western blot
[4] = molecular target: Bio-N-HA (biotinoyl-ε-Aca-…-amide) (human influenza virus); assay: SPR (BIACORE), biotinylated peptide on streptavidin chip, antibody in solution
[5] = molecular target: Bio-C-HA (acetyl-… (ε-biotinoyl)-amide) (human influenza virus); assay: as above
[6] = molecular target: Glutathione-S-transferase modified with the HA epitope (GST-HA) (human influenza virus); assay: Western blot of serially diluted GST-HA; 0.1 µg/ml 3F10 against 1 µg/ml 12CA5; chemiluminescence
[7] = molecular target: Glutathione-S-transferase modified with the HA epitope (GST-HA) (human influenza virus); assay: Western blot of serially diluted GST-HA with antibody-peroxidase conjugate (100 ng/ml); chemiluminescence
[8] = molecular target: Glutathione-S-transferase modified with the HA epitope (GST-HA) (human influenza virus); assay: Western blot of serially diluted GST-HA with antibody-peroxidase conjugate (20 mU/ml); chemiluminescence

Substance | antibody concentration at signal saturation [1] | fold lower antibody concentration for comparable signals against clone 12CA5 [1] | Ka [2] | fold higher affinity than 12CA5 and BabCo [2] | fold lower antibody quantity to precipitate the antigen against clone 12CA5 [3] | Ka [4] | koff [4] | kon [4] | Ka [5] | koff [5] | kon [5] | fold lower detectable amount of GST-HA against clone 12CA5 [6] | antibody concentration at which the antibody becomes the limiting factor [1] | detection limit [7] | amount still detected [8]
mAB R 3F10 (antibody) | 125 ng/mL | 20 fold | 1e+10 M⁻¹ | 30 fold | < 20 fold | 6.8e+09 M⁻¹ | 9.1e-05 s⁻¹ | 620000 M⁻¹ s⁻¹ | 1.2e+10 M⁻¹ | 4.8e-05 s⁻¹ | 590000 M⁻¹ s⁻¹ | 30 fold |  |  | 
mAB 12CA5 (antibody) |  |  | 1e+08 M⁻¹ |  |  | 2.6e+08 M⁻¹ | 0.00021 s⁻¹ | 53000 M⁻¹ s⁻¹ | 9.2e+07 M⁻¹ | 0.00026 s⁻¹ | 23000 M⁻¹ s⁻¹ |  | < 2000 ng/mL |  | 
peroxidase conjugate of the clone 12CA5 (antibody) |  |  |  |  |  |  |  |  |  |  |  |  |  | 1 ng GST-HA | 
peroxidase conjugate of the clone 3F10 (antibody) |  |  |  |  |  |  |  |  |  |  |  |  |  |  | 40 pg GST-HA
anti-HA BabCo (antibody) |  |  | 1e+07 M⁻¹ |  |  | 2.3e+07 M⁻¹ | 0.0005 s⁻¹ | 12000 M⁻¹ s⁻¹ | 9.3e+06 M⁻¹ | 0.001 s⁻¹ | 9500 M⁻¹ s⁻¹ |  |  |  | 

From US7255859
